# Source: paper PMC8385704 (Signal Transduction and Targeted Therapy, 2021)
# Assays:
# [1] = biological target: T1, His-tagged recombinant human ACE2 protein (residues 19-740), dimeric (Homo sapiens, UniProt Q9BYF1); experiment: BLI; settings: both partners purified
# T1 construct: also called hACE2-his; His-tagged human ACE2
# [2] = biological target: T1, His-tagged recombinant human ACE2 …; experiment: ELISA; 3E8 and His-tagged recombinant human ACE2 protein; who was coated is not told; settings: both partners purified
# T1 sequence (Q9BYF1 19-740): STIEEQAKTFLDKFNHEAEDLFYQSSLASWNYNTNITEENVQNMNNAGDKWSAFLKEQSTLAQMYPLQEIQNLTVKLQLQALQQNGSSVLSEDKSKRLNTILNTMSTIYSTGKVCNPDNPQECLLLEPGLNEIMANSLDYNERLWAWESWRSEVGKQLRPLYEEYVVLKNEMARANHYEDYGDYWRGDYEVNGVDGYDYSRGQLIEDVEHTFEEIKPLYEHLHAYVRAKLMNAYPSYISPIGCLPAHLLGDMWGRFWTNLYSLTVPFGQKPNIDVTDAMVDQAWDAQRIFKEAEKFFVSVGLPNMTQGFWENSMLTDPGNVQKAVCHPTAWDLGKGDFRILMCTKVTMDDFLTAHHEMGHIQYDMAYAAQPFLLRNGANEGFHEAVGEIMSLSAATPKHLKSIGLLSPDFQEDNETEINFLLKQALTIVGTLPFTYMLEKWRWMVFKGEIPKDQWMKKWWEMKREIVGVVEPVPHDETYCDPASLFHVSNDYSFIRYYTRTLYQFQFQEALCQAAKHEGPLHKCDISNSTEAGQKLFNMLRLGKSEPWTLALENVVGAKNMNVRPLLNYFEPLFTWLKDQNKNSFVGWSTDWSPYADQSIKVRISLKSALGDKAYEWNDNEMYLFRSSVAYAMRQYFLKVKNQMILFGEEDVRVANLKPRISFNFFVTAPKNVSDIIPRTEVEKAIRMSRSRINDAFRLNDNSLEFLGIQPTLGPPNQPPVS
binder,measurement,setting,value
"monoclonal antibody 3E8 (antibody, V domains shown) VH: EVQLEESGAELVRPGASVKISCKAFGYTFTNHHINWMKQRPGQGLDWIGYVNPYNDYTKYSQNFKGKATLSVDRSSSTAYMELSSLTSEDSAVYYCARWRDYDRDWYFDVWGAGTTVIVSS VL: DIVMTQSPATLSVTPGDRVSLSCRASQSIRDYLYWYQQKSHESPRLLIKYASQSISGIPSRFSGSGSGSDFTLSINSVEPEDVGVYYCQNGHSFPYTFGGGTKLEIK",Kd,[1],30.5 nM
same,EC50,[2],15.3 nM
